{"source": "patent US7378098", "biological_target": "T1, CXC chemokine receptor 4 (CXCR4) (UniProt P61073 1-352, limits assumed)", "T1 construct": "whole, on cells; Both are human cell lines; also called CXCR4 receptor; SDF-1 receptor", "T1 sequence (P61073 whole entry)": "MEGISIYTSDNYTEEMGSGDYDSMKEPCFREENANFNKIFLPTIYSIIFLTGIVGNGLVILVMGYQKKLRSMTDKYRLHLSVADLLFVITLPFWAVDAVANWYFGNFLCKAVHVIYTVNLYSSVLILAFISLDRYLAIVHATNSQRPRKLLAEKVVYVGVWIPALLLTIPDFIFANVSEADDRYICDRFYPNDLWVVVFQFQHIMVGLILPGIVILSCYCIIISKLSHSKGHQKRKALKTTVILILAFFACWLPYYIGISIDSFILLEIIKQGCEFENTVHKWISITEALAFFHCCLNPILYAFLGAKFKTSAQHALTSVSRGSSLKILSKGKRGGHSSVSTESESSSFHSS", "assay": "competition with 4 nM 125I-SDF-1 on CEM cells (FIG. 2C)", "description": "The results are expressed as percentages of the maximal specific binding that was determined without competing ligand, and are the mean of three independent experiments.", "note": "Where no end group is shown, it is not given here.", "data": [{"binder": "SDF-1(1-8)2-lysine bridge dimer (CTCE9904) (also: dimer: two KPVSLSYR chains bridged through alpha and epsilon amino groups of one lysinamide, lactam at chain A 9 at chain B 8 to a chain's C-terminus, It is not known whether the bridging lysine is part of either listing entry; also called SDF-1 (1-8)2-lysine dimer) peptide 1: KPVSLSYRK-NH2 peptide 2: KPVSLSYR", "values": [{"measurement": "binding result", "result": "binds"}]}]}
